Changes are numbered by the printed parent chain. Numbers in names are those of the source.
T1: human guanylate-binding protein 1 (hGBP1), full-length (human, UniProt P32455 1-592, NT-647-NHS label (in the MST assay only))
T1 construct: full-length in the crystallized complex; in MST it was fluorescently labelled (NT-647-NHS) and no nucleotide is mentioned
T1 sequence (looked up): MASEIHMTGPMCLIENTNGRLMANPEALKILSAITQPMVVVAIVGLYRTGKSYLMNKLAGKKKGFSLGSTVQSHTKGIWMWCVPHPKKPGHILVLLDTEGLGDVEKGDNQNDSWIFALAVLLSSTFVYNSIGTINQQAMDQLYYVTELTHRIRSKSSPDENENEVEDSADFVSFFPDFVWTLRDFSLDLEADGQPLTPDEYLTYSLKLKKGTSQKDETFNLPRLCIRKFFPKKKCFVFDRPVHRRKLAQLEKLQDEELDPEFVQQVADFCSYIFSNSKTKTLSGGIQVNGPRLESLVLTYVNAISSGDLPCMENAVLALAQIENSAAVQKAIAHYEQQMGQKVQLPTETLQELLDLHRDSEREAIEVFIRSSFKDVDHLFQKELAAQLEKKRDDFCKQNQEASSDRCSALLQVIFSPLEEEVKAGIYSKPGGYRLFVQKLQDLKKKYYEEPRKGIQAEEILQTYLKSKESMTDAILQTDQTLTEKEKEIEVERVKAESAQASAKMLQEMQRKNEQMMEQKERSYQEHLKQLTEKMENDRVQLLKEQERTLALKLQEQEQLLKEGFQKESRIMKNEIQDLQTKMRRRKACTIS

B1: IpaH9.8 (wild type, Shigella flexneri) (enzyme)
chain: MLPINNNFSLPQNSFYNTISGTYADYFSAWDKWEKQALPGEERDEAVSRLKECLINNSDELRLDRLNLSSLPDNLPAQITLLNVSYNQLTNLPELPVTLKKLYSASNKLSELPVLPPALESLQVQHNELENLPALPDSLLTMNISYNEIVSLPSLPQALKNLRATRNFLTELPAFSEGNNPVVREYFFDRNQISHIPESILNLRNECSIHISDNPLSSHALPALQRLTSSPDYHGPRIYFSMSDGQQNTLHRPLADAVTAWFPENKQSDVSQIWHAFEHEEHANTFSAFLDRLSDTVSARNTSGFREQVAAWLEKLSASAELRQQSFAVAADATESCEDRVALTWNNLRKTLLVHQASEGLFDNDTGALLSLGREMFRLEILEDIARDKVRTLHFVDEIEVYLAFQTMLAEKLQLSTAVKEMRFYGVSGVTANDLRTAEAMVRSREENEFTDWFSLWGPWHAVLKRTEADRWAQAEEQKYEMLENEYPQRVADRLKASGLSGDADAEREAGAQVMRETEQQIYRQLTDEVLALRLPENGSQLHHS
notes: IpaH9.8, bacterial E3 ubiquitin ligase of S. flexneri; the wild-type gene was synthesised and cloned as 'IpaH9.8' into pET28M; No tag cleavage is described although the vector has a TEV site; also called IpaH9.8-WT; wild-type IpaH9.8
B2: IpaH9.8-C337A (enzyme)
chain: B1 chain with C337A
notes: IpaH9.8 of S. flexneri with the active cysteine changed (C337A); mutants made by PCR-based mutagenesis; likely the same as m1
B3: IpaH9.8-R166A (enzyme)
chain: B1 chain with R166A
notes: IpaH9.8 of S. flexneri with Arg166 changed to alanine; mutants made by PCR-based mutagenesis; likely the same as m1; also called IpaH9.8 mutant R166A
B4: IpaH9.8^LRR (22–244), LRR domain of IpaH9.8 (domain or fragment)
chain: TYADYFSAWDKWEKQALPGEERDEAVSRLKECLINNSDELRLDRLNLSSLPDNLPAQITLLNVSYNQLTNLPELPVTLKKLYSASNKLSELPVLPPALESLQVQHNELENLPALPDSLLTMNISYNEIVSLPSLPQALKNLRATRNFLTELPAFSEGNNPVVREYFFDRNQISHIPESILNLRNECSIHISDNPLSSHALPALQRLTSSPDYHGPRIYFSMSD
notes: Leucine-rich repeat domain of IpaH9.8 of S. flexneri, residues 22–244 as crystallized (the plasmid section says 21–244); Plasmids section gives 21–244, crystallization section 22–244; also called IpaH9.8 LRR domain; IpaH9.8^LRR-Sub

Assays:
[1] = biological target: the molecule itself; experiment: native gel or EMSA; Native-PAGE of IpaH9.8 and IpaH9.8-C337A under reducing and non-reducing conditions
[2] = biological target: T1, human guanylate-binding protein 1 …; experiment: MST; 75 nM NT-647-NHS-labeled hGBP1 in PBS pH 7.4; IpaH9.8 titrated in, 30 min at room temperature; Monolith NT.Automated; details: both partners purified
[3] = biological target: T1, human guanylate-binding protein 1 …; experiment: crystal structure; 0.3 mM IpaH9.8^LRR (22–244) mixed with 0.3 mM full-length hGBP1 and 5 mM GDP; 3.5 M NaCl, 0.1 M sodium citrate pH 6.5, 20 °C; space group P6122, one heterodimer in the asymmetric unit; details: both partners purified

Binder	binding result [1]	binding result [2]	binding result [3]
B1	binds	binds	–
B2	binds	–	–
B3	–	binds	–
B4	–	–	binds

— publication PMC7728815, “Substrate-binding destabilizes the hydrophobic cluster to relieve the autoinhibition of bacterial ubiquitin ligase IpaH9.8” (Communications Biology, 2020)
